The source of these data is patent US6372892.

This assay concerns the target recombinant human IL-1β (human) (UniProt P01584). Briefly: cell-based or functional assay.
UniProt P01584, sequence (P01584 117-269 limits assumed): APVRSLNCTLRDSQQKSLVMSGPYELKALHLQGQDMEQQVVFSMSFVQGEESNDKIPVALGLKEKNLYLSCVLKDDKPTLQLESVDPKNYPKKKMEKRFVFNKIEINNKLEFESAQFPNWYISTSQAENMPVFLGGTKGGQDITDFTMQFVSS

As to “IL-1 Hy2 (from UniProt Q8WWZ1 1-152) (ligand)”, the IL-1β induced PGE2 production in human fibroblasts (CCD 1098), PGE2 ELISA; IL-1 Hy2 at 1000 fold excess was in the range of 40 to 60 % inhibition.
